Laboratory results: PMC10397247
One block for each binder: values may come before it.

Tests used:
4H780-bN = molecular target: T1, 4H780-bN; experiment: two-hybrid library CCNG1;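 note: natural log of median RNA to DNA barcode read ratio; higher means stronger binding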
T1 chain: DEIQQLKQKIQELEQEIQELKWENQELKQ

4H797-bN = molecular target: T2, 4H797-bN; experiment: two-hybrid library CCNG1;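 note: natural log of median RNA to DNA barcode read ratio; higher means stronger binding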
T2 chain: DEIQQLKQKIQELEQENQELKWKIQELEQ

4H953-bN = molecular target: T3, 4H953-bN; experiment: two-hybrid library CCNG1;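 note: natural log of median RNA to DNA barcode read ratio; higher means stronger binding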
T3 chain: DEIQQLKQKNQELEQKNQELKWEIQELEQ

4H754-bN = molecular target: T4, 4H754-bN; experiment: two-hybrid library CCNG1;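 note: natural log of median RNA to DNA barcode read ratio; higher means stronger binding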
T4 chain: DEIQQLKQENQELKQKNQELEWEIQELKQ

4H855-bN = molecular target: T5, 4H855-bN; experiment: two-hybrid library CCNG1;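 note: natural log of median RNA to DNA barcode read ratio; higher means stronger binding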
T5 chain: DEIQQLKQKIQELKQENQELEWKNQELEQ

4H457-bN = molecular target: T6, 4H457-bN; experiment: two-hybrid library CCNG1;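 note: natural log of median RNA to DNA barcode read ratio; higher means stronger binding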
T6 chain: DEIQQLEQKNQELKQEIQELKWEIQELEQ

4H575-bN = molecular target: T7, 4H575-bN; experiment: two-hybrid library CCNG1
T7 chain: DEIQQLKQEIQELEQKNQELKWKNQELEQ

4H683-bN = molecular target: T8, 4H683-bN; experiment: two-hybrid library CCNG1
T8 chain: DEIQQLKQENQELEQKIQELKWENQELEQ

4H918-bN = molecular target: T9, 4H918-bN; experiment: two-hybrid library CCNG1
T9 chain: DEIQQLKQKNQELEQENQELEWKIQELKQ

4H968-bN = molecular target: T10, 4H968-bN; experiment: two-hybrid library CCNG1
T10 chain: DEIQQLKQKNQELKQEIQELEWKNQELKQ

GCN2_T = experiment: two-hybrid library CCmax
4H_GCN4 = experiment: two-hybrid library CCmax
Sequence of 4H_GCN4 (chain, as listed by the source): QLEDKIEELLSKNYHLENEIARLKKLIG

4H_BCR = molecular target: T11, 4H_BCR; experiment: two-hybrid library CCmax; details: mean of both orientations
T11 chain: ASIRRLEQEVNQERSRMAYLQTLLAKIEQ

4H535-AA = molecular target: T12, 4H535-AA; experiment: two-hybrid library CCmax
T12 chain: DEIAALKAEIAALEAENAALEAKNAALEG

4H_APH = molecular target: T13, 4H_APH; experiment: two-hybrid library CCmax
T13 chain: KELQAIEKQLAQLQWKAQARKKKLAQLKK

4H58-AA = molecular target: T14, 4H58-AA; experiment: two-hybrid library CCmax; details: mean of both orientations
T14 chain: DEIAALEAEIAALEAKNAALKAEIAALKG

4H895-AA = molecular target: T15, 4H895-AA; experiment: two-hybrid library CCmax; details: mean of both orientations
T15 chain: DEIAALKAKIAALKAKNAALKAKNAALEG

4H3591-AA = molecular target: T16, 4H3591-AA; experiment: two-hybrid library CCmax; details: mean of both orientations
T16 chain: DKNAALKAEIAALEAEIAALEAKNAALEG

4H3066-AA = molecular target: T17, 4H3066-AA; experiment: two-hybrid library CCmax; details: mean of both orientations
T17 chain: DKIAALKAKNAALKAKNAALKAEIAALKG

4H3102-AA = molecular target: T18, 4H3102-AA; experiment: two-hybrid library CCmax; details: mean of both orientations
T18 chain: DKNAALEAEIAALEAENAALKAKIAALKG

4H3920-AA = molecular target: T19, 4H3920-AA; experiment: two-hybrid library CCmax; details: mean of both orientations
T19 chain: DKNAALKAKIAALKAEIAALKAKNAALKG

4H656-AA = molecular target: T20, 4H656-AA; experiment: two-hybrid library CCmax; details: mean of both orientations
T20 chain: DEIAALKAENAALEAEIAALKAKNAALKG

4H3446-AA = molecular target: T21, 4H3446-AA; experiment: two-hybrid library CCmax; details: mean of both orientations
T21 chain: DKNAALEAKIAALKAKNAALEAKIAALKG

4H3029-AA = molecular target: T22, 4H3029-AA; experiment: two-hybrid library CCmax
T22 chain: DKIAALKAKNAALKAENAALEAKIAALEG

4H675-AA = molecular target: T23, 4H675-AA; experiment: two-hybrid library CCmax; details: mean of both orientations
T23 chain: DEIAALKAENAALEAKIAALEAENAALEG

4H3939-AA = molecular target: T24, 4H3939-AA; experiment: two-hybrid library CCmax; details: mean of both orientations
T24 chain: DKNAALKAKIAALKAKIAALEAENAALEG

4H497-AA = molecular target: T25, 4H497-AA; experiment: two-hybrid library CCmax; details: mean of both orientations
T25 chain: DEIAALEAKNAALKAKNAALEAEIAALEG

4H3666-AA = molecular target: T26, 4H3666-AA; experiment: two-hybrid library CCmax; details: mean of both orientations
T26 chain: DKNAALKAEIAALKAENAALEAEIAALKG

4H391-AA = molecular target: T27, 4H391-AA; experiment: two-hybrid library CCmax; details: mean of both orientations
T27 chain: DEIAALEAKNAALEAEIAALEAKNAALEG

4H428-AA = molecular target: T28, 4H428-AA; experiment: two-hybrid library CCmax; details: mean of both orientations
T28 chain: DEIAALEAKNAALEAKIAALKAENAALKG

4H3709-AA = molecular target: T29, 4H3709-AA; experiment: two-hybrid library CCmax; details: mean of both orientations
T29 chain: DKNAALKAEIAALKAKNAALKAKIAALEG

4H3121-AA = molecular target: T30, 4H3121-AA; experiment: two-hybrid library CCmax; details: mean of both orientations
T30 chain: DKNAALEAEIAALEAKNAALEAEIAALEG

4H478-AA = molecular target: T31, 4H478-AA; experiment: two-hybrid library CCmax; details: mean of both orientations
T31 chain: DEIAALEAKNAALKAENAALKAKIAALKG

4H971-AA = molecular target: T32, 4H971-AA; experiment: two-hybrid library CCmax; details: mean of both orientations
T32 chain: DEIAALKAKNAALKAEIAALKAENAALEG

4H3417-AA = molecular target: T33, 4H3417-AA; experiment: two-hybrid library CCmax; details: mean of both orientations
T33 chain: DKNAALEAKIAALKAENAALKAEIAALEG

4H3628-AA = molecular target: T34, 4H3628-AA; experiment: two-hybrid library CCmax; details: mean of both orientations
T34 chain: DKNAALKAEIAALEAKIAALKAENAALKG

4H626-bN = molecular target: T35, 4H626-bN; experiment: two-hybrid library CCNG1
T35 chain: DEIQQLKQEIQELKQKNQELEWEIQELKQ

4H906-bN = molecular target: T36, 4H906-bN; experiment: two-hybrid library CCNG1
T36 chain: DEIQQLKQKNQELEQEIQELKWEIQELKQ

interaction score (4H3591-AA): -1.37 | interaction score (4H3066-AA): -1.01 | interaction score (4H3102-AA): 0.23 | interaction score (4H3920-AA): -1.69 | interaction score (4H656-AA): -1.3 | interaction score (4H3446-AA): -1.79 | interaction score (4H3029-AA): -0.965 | interaction score (4H675-AA): -1.45 | interaction score (4H3939-AA): -1.98 | interaction score (4H497-AA): -0.722 | interaction score (4H3666-AA): -1.86 | interaction score (4H391-AA): -1.42 | interaction score (4H428-AA): -1.74 | interaction score (4H3709-AA): -1.34 | interaction score (4H3121-AA): -1.89 | interaction score (4H478-AA): 1.48 | interaction score (4H971-AA): -2.45 | interaction score (4H3417-AA): -1.74 | interaction score (4H3628-AA): -1.87
Binder: DKIAALKAKNAALKAENAALEAKIAALEG [4H3029-AA]

interaction score (4H626-bN): 0.832 | interaction score (4H906-bN): -0.523
Binder: DEIQQLKQEIQELKQKNQELEWEIQELKQ [4H626-bN]

The remaining lines, values behind:

Binder: DEIQQLEQKNQELKQEIQELKWEIQELEQ [4H457-bN]
interaction score (4H780-bN): -1.08 | interaction score (4H797-bN): -1.31 | interaction score (4H953-bN): -0.785 | interaction score (4H754-bN): -0.487 | interaction score (4H855-bN): -2.15 | interaction score (4H457-bN): -1.6 | interaction score (4H575-bN): -0.989 | interaction score (4H683-bN): -0.914 | interaction score (4H918-bN): -1.24 | interaction score (4H968-bN): -1.86

Binder: DEIAALKAEIAALEAENAALEAKNAALEG [4H535-AA]
interaction score (GCN2_T): -2.47 | interaction score (4H_GCN4): -1.41 | interaction score (4H_BCR): -1.23 | interaction score (4H535-AA): -0.291 | interaction score (4H_APH): -1.48 | interaction score (4H58-AA): -0.661 | interaction score (4H895-AA): 2.1

Binder: DEIQQLKQEIQELEQKNQELKWKNQELEQ [4H575-bN]
interaction score (4H780-bN): -0.38 | interaction score (4H797-bN): -1.51 | interaction score (4H953-bN): 0.476 | interaction score (4H754-bN): -2.08 | interaction score (4H855-bN): 0.475 | interaction score (4H575-bN): -0.842 | interaction score (4H683-bN): 0.443 | interaction score (4H918-bN): 0.56 | interaction score (4H968-bN): -0.976
